Results taken from patent publication US20210395318A1.
Several values for one entry are separate records, joined by “and”; a condition that tells them apart may be missing. Identical values can stand only once.

Target: human CD40 on primary human B cells or human monocyte-derived dendritic cells (human) (UniProt P25942)
Experiment: cell-based or functional assay

human CD40 on primary human B cells or human monocyte-derived dendritic cells (human), sequence (P25942 21-277 H80K/K81H limits assumed): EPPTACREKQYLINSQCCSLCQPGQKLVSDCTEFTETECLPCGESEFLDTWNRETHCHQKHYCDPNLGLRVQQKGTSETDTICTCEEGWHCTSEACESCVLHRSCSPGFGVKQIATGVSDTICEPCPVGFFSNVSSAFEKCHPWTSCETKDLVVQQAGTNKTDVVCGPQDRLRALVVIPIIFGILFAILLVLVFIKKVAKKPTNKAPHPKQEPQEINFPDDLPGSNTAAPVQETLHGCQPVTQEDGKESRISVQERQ

With “anti-CD40 monoclonal antibody (corresponds to sequence 21.4.1 of U.S. Pat. No. 7,338,660 B2)” the EC50, % CD86, human B cells with FAP-CHO cells, w HSA was 0.88 nM and 0.3 nM, the EC50, % CD86, human B cells with FAP-CHO cells, w/o HSA was 1.9 nM and 0.51 nM and the EC50, MFI CD86, human B cells with FAP-CHO cells, w HSA was 0.51 nM and 2.05 nM. For the same substance, the EC50, MFI CD86, human B cells with FAP-CHO cells, w/o HSA was 1.13 nM and 4.73 nM, the Efficacy [MFI at highest dose], MFI CD86, human B cells with FAP-CHO cells, w HSA was 1530 MFI and 1870 MFI and the Efficacy [MFI at highest dose], MFI CD86, human B cells with FAP-CHO cells, w/o HSA was 1340 MFI and 2060 MFI. For the same substance, the Efficacy [MFI at highest dose], MFI CD86, human B cells with WT-CHO cells (no FAP), w HSA was 1900 MFI and 1470 MFI and the Efficacy [MFI at highest dose], MFI CD86, human B cells with WT-CHO cells (no FAP), w/o HSA was 2050 MFI and 1390 MFI.
